Data: patent US20190111150A1 (AbbVie / Abbott, published 2019)
Residue numbers refer to the chain shown, from its start.

B1: anti-CD71 activatable antibody anti-CD71-TF02.13-2011, intact (uncleaved) (antibody, human IgG1, kappa)
heavy: not shown
light: NLCTEHSAALDCRSYGGGSSGGSISSGLLSGRSDNPGGGSDIQMTQSPSSLSASVGDRVTITCSASSSVYYMYWFQQKPGKAPKLWIYSTSNLASGVPSRFSGSGSGTDYTLTISSMQPEDFATYYCQQRRNYPYTFGQGTKLEIKRTVAAPSVFIFPPSDEQLKSGTASVVCLLNNFYPREAKVQWKVDNALQSGNSQESVTEQDSKDSTYSLSSTLTLSKADYEKHKVYACEVTHQGLSSPVTKSFNRGEC
notes: copies: 2 + 2
B2: anti-CD71 conjugated activatable antibody anti-CD71-TF02.13-2011-vcMMAE E2, intact (uncleaved) (antibody, human IgG1, kappa)
heavy: not shown
light: B1 light
modifications: vc-MMAE (maleimide caproyl-valine-citrulline linker with monomethyl auristatin E) on interchain cysteine thiols after partial TCEP reduction; drug load 2 per activatable antibody; chain and positions not stated
notes: E2 = enriched for drug load 2 (DAR about 2); also called AADC; copies: 2 + 2
B3: anti-CD71-TF02.13-2011, protease-activated (cleaved) (antibody, not shown: small tags and cut ends)
heavy: not shown
light: DIQMTQSPSSLSASVGDRVTITCSASSSVYYMYWFQQKPGKAPKLWIYSTSNLASGVPSRFSGSGSGTDYTLTISSMQPEDFATYYCQQRRNYPYTFGQGTKLEIKRTVAAPSVFIFPPSDEQLKSGTASVVCLLNNFYPREAKVQWKVDNALQSGNSQESVTEQDSKDSTYSLSSTLTLSKADYEKHKVYACEVTHQGLSSPVTKSFNRGEC
notes: the mask is released
B4: anti-CD71-TF02.13-2011-vcMMAE E2, protease-activated (cleaved) (antibody, not shown: small tags and cut ends)
heavy: not shown
light: B3 light
modifications: vc-MMAE on interchain cysteine thiols; drug load 2 per antibody; chain and positions not stated
notes: m14 after protease treatment; the mask is released
B5: anti-CD71 Ab21.12 LcB:HcC antibody (antibody, V domains shown)
VH: QVQLVQSGAEVKKPGASVKMSCKASGYTFTSYWMHWVRQAPGQGLEWIGAIYPGNSETGYAQKFQGRATLTADTSTSTAYMELSSLRSEDTAVYYCTRENWDPGFAFWGQGTLITVSS
VL: DIQMTQSPSSLSASVGDRVTITCSASSSVYYMYWFQQKPGKAPKLWIYSTSNLASGVPSRFSGSGSGTDYTLTISSMQPEDFATYYCQQRRNYPYTFGQGTKLEIK
notes: Humanized; also called huCD71 21.12 Ab; anti-CD71 21.12 antibody
B6: humanized anti-CD71 antibody Ab21.10 LcB:HcA (antibody, V domains shown)
VH: B5 VH with M20V, I48M, A68V, L70M, A72R, A79V, T97A, I114V
VL: B5 VL
notes: Detected with anti-human IgG
B7: conjugated antibody anti-CD71 Ab21.12-vcMMAE E2 (antibody, V domains shown)
VH: B5 VH
VL: B5 VL
modifications: vc-MMAE conjugated; DAR about 2 (E2); positions not given
notes: Unmasked antibody drug conjugate of Ab21.12

Assays:
[1] = biological target: T1, recombinant human CD71 extracellular domain (human, UniProt P02786 89-760); test: ratio of Kapp; ELISA on rhCD71
T1 construct: extracellular domain; Treated as one molecule; also called rhCD71; human CD71 ECD
Protocol: (§1) In the ELISA examples, recombinant cynomolgus or human CD71 ECD proteins were coated on ELISA plates, and then incubated with one of a range of concentrations of the test articles of the present disclosure, followed by measurement of the amount of bound test article with a secondary antibody.

[2] = biological target: T1, recombinant human CD71 extracellular …; test: ELISA on coated recombinant human CD71 ECD (rhCD71); Kapp
Protocol: as §1

[3] = biological target: T2, cynomolgus monkey CD71 on cells (cynomolgus monkey, UniProt H9EXL1 1-760 (rhesus entry)); test: ratio of Kapp; flow cytometry on CHO-K1 cyno CD71
T2 construct: whole, on cells; also called cell-surface cynomolgus CD71; CHO w/ Cynomolgus CD71
Description: (§2) The flow cytometry results reflect the average measured Kapp from four human cell lines (HCC1806 human breast cancer, HT-29 human colorectal cancer, NCI-H292 human lung cancer, and NCI-H520 human lung cancer) and one CHO-K1 cell line expressing cynomolgus monkey CD71.

[4] = biological target: T3, human CD71 on the surface of human cell lines (human, UniProt P02786 1-760); test: flow cytometry, average of 4 human cell lines (HCC1806, HT-29, NCI-H292, NCI-H520); Kapp
T3 construct: whole, on cells; also called cell-surface human CD71; CD71 on BxPC3, NCI-H292, HCC1806, HT-29, NCI-H520 cells
Description: as §2

[5] = biological target: T4, recombinant cynomolgus monkey CD71 extracellular domain (cynomolgus monkey, UniProt H9EXL1 89-760 (rhesus entry)); test: ELISA on plate-coated recombinant cynomolgus CD71 (1 µg/mL), goat anti-human HRP, TMB, Abs 450
T4 construct: extracellular domain; also called rcCD71; monkey recombinant CD71
Protocol: (§3) The amount of bound antibody in each sample was detected by incubation and detection by goat anti-human antibody conjugated to horseradish peroxidase and Ultra TMB (Thermo Fisher Scientific) detection.

[6] = biological target: T3, human CD71 on the surface of human cell …; test: ratio of Kapp; flow cytometry, average of 4 human cell lines
Description: as §2

[7] = biological target: T5, recombinant human FcγRIIa H131 (human, UniProt P12318 36-218, limits assumed); test: SPR (Biacore), FcγR captured via 6xHis tag, steady state affinity model
T5 construct: also called huFcγRIIa H131; FcγIIa H131
T5 sequence (looked up): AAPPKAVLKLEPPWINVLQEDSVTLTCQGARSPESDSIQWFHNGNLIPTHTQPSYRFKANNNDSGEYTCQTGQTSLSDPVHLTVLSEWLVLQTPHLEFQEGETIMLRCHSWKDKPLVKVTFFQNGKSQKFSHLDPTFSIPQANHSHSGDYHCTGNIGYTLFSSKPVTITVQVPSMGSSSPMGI
Protocol: (§4) Mouse anti-6×His antibodies were directly immobilized on a CMS chip by amine coupling according to manufacturer's protocol to the density of 10000 RU. Human FcγRs were then captured on Flow Cells 2, 3 and 4 to achieve capture level of the FcγRs of 250-500 RU. Flow Cell 1 was used as a reference surface. HBS-EP+ buffer (GE, Healthcare) was used as the running buffer. […] The chip surfaces were regenerated with an injection of 100 mM HCl at a flow rate of 100 μL/minute for two seconds over all four flow cells. Three experiments with the use of three different CMS chips were run for each sample (each in duplicate) to accommodate all types of experimental error (instrument, surface and operator). The results of these three experiments were averaged.
(§5) All recombinant human FcγRIIIa V158 data and FcγRIIIa F158 data were fitted to 1:1 binding fit model with Rmax fixed local to account for variability in capture levels. Recombinant human FcγRIIb, FcγRIIa H131, and FcRn binding data were fitted to a steady state affinity model. Biacore T200 Evaluation Software Version 2.0 was used to fit all the data.

[8] = biological target: T6, human FcRn (human, UniProt P55899 24-297; P61769 21-119); test: SPR (Biacore), antibody immobilized, FcRn injected, pH 6.0, steady state affinity model; FcRn at pH 6.0
T6 construct: also called Hu FcRn; neonatal Fc receptor
Protocol: The surfaces were regenerated with an injection of 100 mM HCl for two seconds followed by HBS-EP+, pH 7.4. Samples were prepared and run in two running buffer systems, MES-EP+ pH 6.0 and HBS-EP pH 7.4. Three experiments with the use of three different CMS chips were run for each sample (each in duplicate) to account for instrument, surface and operator error. The results of these three experiments were averaged.
as §5

[9] = biological target: T4, recombinant cynomolgus monkey CD71 …; test: ratio of Kapp; ELISA on rcCD71
Protocol: as §1

[10] = biological target: T7, recombinant human FcγRIIIa F158 (human, UniProt P08637 17-208); test: SPR (Biacore), FcγR captured via 6xHis tag, 1:1 binding fit
T7 construct: also called huFcγRIIIa F158
Protocol: as §4, §5

[11] = biological target: T8, recombinant human FcγRIIIa V158 (human, UniProt P08637 17-208); test: as above
T8 construct: also called huFcγRIIIa V158
Protocol: as §4, §5

[12] = biological target: T4, recombinant cynomolgus monkey CD71 …; test: ELISA on coated recombinant cynomolgus CD71 ECD (rcCD71); Kapp
Protocol: as §1

[13] = biological target: T2, cynomolgus monkey CD71 on cells; test: flow cytometry on CHO-K1 cells expressing cynomolgus CD71; Kapp
Description: as §2

[14] = biological target: T1, recombinant human CD71 extracellular …; test: ELISA, recombinant human CD71 (R&D Systems) coated at 1 ug/mL; Kd(app)
Protocol: as §3

[15] = biological target: T2, cynomolgus monkey CD71 on cells; test: flow cytometry on CHO cells expressing cynomolgus CD71, Alexa Fluor 647 goat anti-human IgG (MFI)
[16] = biological target: T4, recombinant cynomolgus monkey CD71 …; test: ELISA, recombinant cynomolgus CD71 (R&D Systems) coated at 1 ug/mL; Kd(app)
Protocol: as §3

[17] = biological target: human FcγRI (human, UniProt P12314 16-288, limits assumed); test: FcγRI competition binding ELISA (results not shown)
[18] = biological target: T4, recombinant cynomolgus monkey CD71 …; test: ELISA on recombinant CD71 ECD; apparent Kd (Kapp)
[19] = biological target: T1, recombinant human CD71 extracellular …; test: ELISA on recombinant CD71 ECD; apparent Kd (Kapp)
[20] = biological target: T2, cynomolgus monkey CD71 on cells; test: flow cytometry on cynomolgus monkey primary kidney epithelial cells; apparent Kd (Kapp)
[21] = biological target: T3, human CD71 on the surface of human cell …; test: flow cytometry on human BxPC3 cells; apparent Kd (Kapp)
[22] = biological target: T9, rat CD71 on rat H-4-II-E hepatoma cells (rat, UniProt Q99376 1-761); test: flow cytometry on rat H-4-II-E hepatoma cells
T9 construct: whole, on cells; also called rat CD71-expressing cell line

[23] = biological target: T10, recombinant mouse CD71 (mouse, UniProt Q62351 89-763); test: ELISA on recombinant mouse CD71 (ECD)
T10 construct: extracellular domain; also called mouse CD71 ECD

[24] = biological target: T3, human CD71 on the surface of human cell …; test: FACS on NCI H292 cells; apparent Kd (Kapp)
[25] = biological target: T3, human CD71 on the surface of human cell …; test: FACS on cells

T2 sequence (chain, as listed by the source): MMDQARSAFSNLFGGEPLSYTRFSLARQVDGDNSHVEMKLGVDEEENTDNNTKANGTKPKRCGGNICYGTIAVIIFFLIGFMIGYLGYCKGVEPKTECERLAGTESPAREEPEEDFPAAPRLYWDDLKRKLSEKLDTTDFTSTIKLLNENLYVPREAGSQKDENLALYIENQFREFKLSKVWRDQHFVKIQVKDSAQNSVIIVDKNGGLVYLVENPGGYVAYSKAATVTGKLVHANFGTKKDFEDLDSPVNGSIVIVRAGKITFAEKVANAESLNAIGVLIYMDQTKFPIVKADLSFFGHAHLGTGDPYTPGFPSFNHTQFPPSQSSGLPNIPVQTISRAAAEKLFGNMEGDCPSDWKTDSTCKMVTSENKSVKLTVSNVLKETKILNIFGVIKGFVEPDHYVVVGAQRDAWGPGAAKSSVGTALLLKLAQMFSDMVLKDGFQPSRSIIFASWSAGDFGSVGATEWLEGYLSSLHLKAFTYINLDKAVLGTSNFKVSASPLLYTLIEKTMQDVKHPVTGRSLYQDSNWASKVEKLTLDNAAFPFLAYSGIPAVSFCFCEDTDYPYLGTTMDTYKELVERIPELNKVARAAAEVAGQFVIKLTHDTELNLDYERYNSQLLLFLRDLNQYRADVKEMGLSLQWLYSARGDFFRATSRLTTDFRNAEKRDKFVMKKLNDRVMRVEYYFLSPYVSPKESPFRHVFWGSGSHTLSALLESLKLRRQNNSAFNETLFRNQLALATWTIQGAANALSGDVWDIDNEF
T4 sequence (chain, as listed by the source): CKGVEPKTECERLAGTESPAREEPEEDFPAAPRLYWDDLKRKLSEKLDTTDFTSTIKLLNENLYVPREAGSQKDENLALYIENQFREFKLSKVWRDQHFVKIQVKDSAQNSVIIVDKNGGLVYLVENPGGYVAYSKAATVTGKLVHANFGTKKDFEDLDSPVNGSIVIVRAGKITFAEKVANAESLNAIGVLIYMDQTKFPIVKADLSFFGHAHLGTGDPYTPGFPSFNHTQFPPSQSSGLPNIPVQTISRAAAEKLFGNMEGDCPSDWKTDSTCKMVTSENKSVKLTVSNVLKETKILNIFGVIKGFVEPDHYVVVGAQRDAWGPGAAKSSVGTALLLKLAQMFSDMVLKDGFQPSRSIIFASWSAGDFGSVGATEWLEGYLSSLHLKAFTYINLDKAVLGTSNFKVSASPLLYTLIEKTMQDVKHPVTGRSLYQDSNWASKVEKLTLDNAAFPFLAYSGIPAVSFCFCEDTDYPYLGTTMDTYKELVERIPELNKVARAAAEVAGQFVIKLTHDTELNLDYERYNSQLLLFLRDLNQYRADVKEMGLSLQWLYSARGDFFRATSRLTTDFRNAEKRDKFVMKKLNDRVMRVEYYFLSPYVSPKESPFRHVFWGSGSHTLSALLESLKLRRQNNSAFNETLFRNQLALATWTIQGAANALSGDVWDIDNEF
T3 sequence (P02786 whole entry): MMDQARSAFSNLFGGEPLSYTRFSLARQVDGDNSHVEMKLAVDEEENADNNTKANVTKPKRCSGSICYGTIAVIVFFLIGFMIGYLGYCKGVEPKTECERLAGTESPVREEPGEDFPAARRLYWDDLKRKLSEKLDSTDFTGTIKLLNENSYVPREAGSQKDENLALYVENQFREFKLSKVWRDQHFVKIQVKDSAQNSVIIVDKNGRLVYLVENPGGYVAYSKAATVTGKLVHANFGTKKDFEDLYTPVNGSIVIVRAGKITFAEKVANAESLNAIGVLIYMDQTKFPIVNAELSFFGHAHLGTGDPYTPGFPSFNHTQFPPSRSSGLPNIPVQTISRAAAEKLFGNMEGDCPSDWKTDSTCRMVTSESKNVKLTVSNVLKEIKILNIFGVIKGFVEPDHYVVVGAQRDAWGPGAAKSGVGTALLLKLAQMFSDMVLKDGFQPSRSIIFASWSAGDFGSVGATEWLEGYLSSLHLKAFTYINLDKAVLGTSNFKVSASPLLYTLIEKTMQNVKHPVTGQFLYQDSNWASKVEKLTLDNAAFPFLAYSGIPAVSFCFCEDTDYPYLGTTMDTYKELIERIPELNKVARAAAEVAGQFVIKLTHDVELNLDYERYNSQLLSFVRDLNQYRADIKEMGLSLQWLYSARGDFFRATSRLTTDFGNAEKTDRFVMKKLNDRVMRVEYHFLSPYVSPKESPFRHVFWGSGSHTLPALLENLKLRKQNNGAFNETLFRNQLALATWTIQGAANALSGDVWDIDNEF
T1 sequence (P02786 89-760): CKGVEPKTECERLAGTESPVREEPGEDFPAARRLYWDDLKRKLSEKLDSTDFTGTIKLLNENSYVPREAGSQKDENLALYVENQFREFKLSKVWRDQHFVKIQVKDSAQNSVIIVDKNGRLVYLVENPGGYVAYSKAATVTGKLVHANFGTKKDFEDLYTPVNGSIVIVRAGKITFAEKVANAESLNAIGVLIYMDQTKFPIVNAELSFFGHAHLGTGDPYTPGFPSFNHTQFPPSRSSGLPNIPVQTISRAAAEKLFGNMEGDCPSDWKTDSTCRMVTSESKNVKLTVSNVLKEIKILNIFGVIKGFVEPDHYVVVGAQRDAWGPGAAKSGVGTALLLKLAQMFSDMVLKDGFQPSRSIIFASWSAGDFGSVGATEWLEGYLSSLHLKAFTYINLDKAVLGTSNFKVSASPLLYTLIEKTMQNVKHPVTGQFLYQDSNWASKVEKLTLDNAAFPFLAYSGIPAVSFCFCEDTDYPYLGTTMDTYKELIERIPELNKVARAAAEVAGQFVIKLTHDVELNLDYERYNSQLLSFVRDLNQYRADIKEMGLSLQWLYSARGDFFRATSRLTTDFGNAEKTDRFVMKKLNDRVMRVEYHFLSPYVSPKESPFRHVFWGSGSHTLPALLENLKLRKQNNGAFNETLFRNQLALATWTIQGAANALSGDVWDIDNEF
T7 sequence (P08637 17-208 limits assumed): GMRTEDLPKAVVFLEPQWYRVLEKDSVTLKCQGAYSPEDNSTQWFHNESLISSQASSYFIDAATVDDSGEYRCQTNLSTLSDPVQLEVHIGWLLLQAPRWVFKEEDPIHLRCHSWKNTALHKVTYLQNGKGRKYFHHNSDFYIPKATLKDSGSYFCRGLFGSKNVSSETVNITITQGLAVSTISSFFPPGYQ
T6 sequence (P55899 24-297 limits assumed, form in doubt, chain 1 of 2): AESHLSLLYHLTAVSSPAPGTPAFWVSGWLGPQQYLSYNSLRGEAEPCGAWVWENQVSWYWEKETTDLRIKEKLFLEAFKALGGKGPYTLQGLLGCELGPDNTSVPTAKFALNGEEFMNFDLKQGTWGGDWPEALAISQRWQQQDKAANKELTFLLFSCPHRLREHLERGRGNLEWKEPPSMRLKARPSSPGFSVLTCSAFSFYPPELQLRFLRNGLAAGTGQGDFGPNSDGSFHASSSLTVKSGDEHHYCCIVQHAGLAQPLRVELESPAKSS
T6 sequence (P61769 21-119 limits assumed, form in doubt, chain 2 of 2): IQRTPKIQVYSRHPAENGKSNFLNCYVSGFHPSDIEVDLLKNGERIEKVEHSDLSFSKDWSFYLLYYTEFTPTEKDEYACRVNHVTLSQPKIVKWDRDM
T10 sequence (Q62351 89-763): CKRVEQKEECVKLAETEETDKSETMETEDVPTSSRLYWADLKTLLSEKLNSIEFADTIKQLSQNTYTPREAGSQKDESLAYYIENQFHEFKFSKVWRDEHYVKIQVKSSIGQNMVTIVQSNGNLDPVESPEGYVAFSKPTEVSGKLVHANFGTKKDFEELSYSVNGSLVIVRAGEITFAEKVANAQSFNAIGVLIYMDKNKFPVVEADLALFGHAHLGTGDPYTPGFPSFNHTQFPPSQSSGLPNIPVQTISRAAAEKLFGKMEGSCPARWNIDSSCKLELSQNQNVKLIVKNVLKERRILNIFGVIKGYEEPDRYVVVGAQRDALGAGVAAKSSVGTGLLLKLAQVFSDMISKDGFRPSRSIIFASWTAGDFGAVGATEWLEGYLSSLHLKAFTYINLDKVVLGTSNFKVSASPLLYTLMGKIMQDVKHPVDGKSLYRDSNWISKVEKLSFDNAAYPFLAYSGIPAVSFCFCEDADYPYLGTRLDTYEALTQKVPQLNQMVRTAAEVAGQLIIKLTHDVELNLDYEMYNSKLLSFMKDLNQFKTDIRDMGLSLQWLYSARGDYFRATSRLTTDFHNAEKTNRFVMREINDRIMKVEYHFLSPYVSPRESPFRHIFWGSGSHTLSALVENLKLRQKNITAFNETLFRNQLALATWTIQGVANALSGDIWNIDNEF
T8 sequence (P08637 17-208 F176V): as the sequence (P08637 17-208 limits assumed) above, with F160V counted along it
T9 sequence (Q99376 whole entry): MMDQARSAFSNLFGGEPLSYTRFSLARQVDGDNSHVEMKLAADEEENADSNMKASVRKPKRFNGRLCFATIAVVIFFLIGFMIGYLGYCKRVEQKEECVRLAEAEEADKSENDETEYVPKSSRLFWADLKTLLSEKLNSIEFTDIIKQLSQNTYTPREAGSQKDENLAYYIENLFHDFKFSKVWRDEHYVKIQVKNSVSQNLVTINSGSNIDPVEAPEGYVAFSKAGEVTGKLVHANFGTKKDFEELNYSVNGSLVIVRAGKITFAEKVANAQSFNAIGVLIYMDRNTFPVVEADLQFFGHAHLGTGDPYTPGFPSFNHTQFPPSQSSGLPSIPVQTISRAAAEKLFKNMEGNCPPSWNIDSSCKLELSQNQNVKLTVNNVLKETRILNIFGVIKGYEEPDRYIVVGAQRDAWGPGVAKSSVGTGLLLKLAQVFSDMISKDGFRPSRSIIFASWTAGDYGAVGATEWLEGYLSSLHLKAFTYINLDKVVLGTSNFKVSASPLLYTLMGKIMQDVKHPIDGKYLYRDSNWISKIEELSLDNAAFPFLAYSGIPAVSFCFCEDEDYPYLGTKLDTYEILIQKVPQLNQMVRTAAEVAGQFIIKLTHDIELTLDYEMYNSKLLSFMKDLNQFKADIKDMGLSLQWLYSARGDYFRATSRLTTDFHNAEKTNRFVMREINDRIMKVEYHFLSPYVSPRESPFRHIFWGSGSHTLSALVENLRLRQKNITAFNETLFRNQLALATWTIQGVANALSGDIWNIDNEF

| Binder | Kd [2] | Kd [4] | EC50 (read off the curve) [5] | Kd [12] | Kd [13] | Kd [14] | Kd [16] | other results |
| --- | --- | --- | --- | --- | --- | --- | --- | --- |
| B1 | 1.94 nM | 106 nM | ~1 nM | 1.11 nM | 28 nM | 0.42 nM | 1.24 nM | Ratio anti-CD71-TF02.13-2011/Ab21.12 [1]: 65; Ratio anti-CD71-TF02.13-2011/anti-CD71-TF02.13-2011, matriptase activated [1]: 32; Ratio anti-CD71-TF02.13-2011/Ab21.12 [3]: 93; Ratio anti-CD71-TF02.13-2011/anti-CD71-TF02.13-2011, matriptase activated [3]: 56; Ratio anti-CD71-TF02.13-2011/Ab21.12 [6]: 127; Ratio anti-CD71-TF02.13-2011/anti-CD71-TF02.13-2011, matriptase activated [6]: 55; Kd [7]: 4700 nM; Kd [8]: 4700 nM; Ratio anti-CD71-TF02.13-2011/Ab21.12 [9]: 37; Ratio anti-CD71-TF02.13-2011/anti-CD71-TF02.13-2011, matriptase activated [9]: 28; Kd [10]: 1800 nM; Kd [11]: 180 nM; EC50 (read off the curve) [15]: ~30 nM |
| B2 | 2.58 nM | 98.1 nM | ~1 nM | 1.02 nM | 35 nM | 0.48 nM | 1.49 nM | Kd [7]: 6200 nM; Kd [8]: 5300 nM; binding result [17]: binds; Kd [10]: 2100 nM; EC50 (read off the curve) [15]: ~30 nM |
| B3 | 0.06 nM | 2 nM | ~0.06 nM | 0.04 nM | 0.5 nM | 0.04 nM | 0.06 nM |  |
| B4 | 0.05 nM | 2 nM | ~0.07 nM | 0.04 nM | 0.7 nM | 0.05 nM | 0.07 nM |  |
| B5 | 0.03 nM | 0.8 nM |  | 0.03 nM | 0.3 nM |  |  | Kd [18]: 0.4 nM; Kd [19]: 0.3 nM; Kd [20]: 3 nM; Kd [21]: 3 nM; binding result [22]: no binding; binding result [23]: no binding; Kd [24]: 2.29 nM |
| B6 |  |  |  |  |  |  |  | binding result [25]: binds |
| B7 | 0.04 nM |  |  | 0.03 nM |  |  |  |  |
